Earlier results on 1 substance are cited in publication PMC2933916.

A value given as a limit tells only on which side of the number the result lay.

A word on the Kd: it is the concentration at which binding is half-saturated.

This data set concerns the target S100B (UniProt P04271).

Consider S100B (from UniProt P04271), for which the Kd was under 500 pM.
